The values that follow come from patent publication US20130216547A1 (Regeneron, published 2013).

As a reminder, the Kd is the constant that tells how readily two partners part at equilibrium. One may read the koff as the first-order rate constant of dissociation. The kon is the rate constant with which the complex forms.

Assay [1] concerns the target T1, small-ET-1 (endothelin-1) (human).
T1 construct: 21 amino acid peptide, same for mouse and human; also called human small-ET-1; EDN-1
T1 peptide: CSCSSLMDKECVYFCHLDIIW
Put plainly: SPR (Biacore T200), 37 C, mAb capture, peptide analyte. As to the method:
(§1) Measurements were conducted on a T200 Biacore instrument (Biacore Life Sciences division of GE Healthcare, Piscataway, N.J.). […] Peptide binding was monitored for 3 min while dissociation of mAb-bound peptide was monitored for 4 min in HBST running buffer (0.01 M HEPES pH 7.4, 0.15 M NaCl, 3 mM EDTA, 0.005% v/v Surfactant P20). Kinetic association (kₐ) and dissociation (kd) rate constants were determined by processing and fitting the data to a 1:1 binding model using Scrubber 2.0 curve fitting software.
A general note: Surface plasmon resonance follows binding to a sensor surface in real time, without labels.

The target in assay [2] is T2, human big-endothelin-1 (big-ET-1) (human).
T2 peptide: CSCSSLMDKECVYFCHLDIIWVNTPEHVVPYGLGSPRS
Put plainly: cell-based or functional assay.

The target in assay [3] is T2, human big-endothelin-1 (big-ET-1). Put plainly: SPR (Biacore T200), 37 C, mAb capture, peptide analyte. As to the method:
as §1

Assay [4] deals with T3, mouse big-ET-1 (mouse).
T3 construct: also called mBig-ET-1
T3 peptide: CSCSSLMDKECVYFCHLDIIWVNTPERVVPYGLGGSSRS
The description is as above. The procedure: as §1

Assay [5] concerns the target T3, mouse big-ET-1. Put plainly: cell-based or functional assay.

Where a chain is given by its changes, count along the chain named. Numbers in names are those of the source.

B1: H4H6492N2 (antibody, V domains shown)
VH: EVQLVESGGGLVKPGGSLRVSCVASGFTFSNAWMTWVRQTPGKGLEWVGRIKSRTDGGTVDYVAPVKGRFTISRDDSKNTLYLQMNSLKAEDTAVYYCRADLDYWGQGTLVTVSS
VL: DVVMTQSPLSLPVSLGQPASISCRSSQSLVHSDGITYLNWFQQRPGQSPRRLIYKISNRDSGVPDRFSGSGSGTDFTLKFSRVEAEDVGVYFCMQGTHWPYTFGQGTKLEIK
notes: Human IgG4 Fc (prefix H4H)
For B1, the binding result in assay [1] is “no binding”. In addition, in assay [2], the “Blocking IC50(M), 10 nM hBig-ET-1 + 3 nM hECE1; 293/ETaR/NFAT-Luc luciferase” value is 4.17e-08 M. Further, in assay [3], the Kd was 70 nM, the “T½” value came out at 24 s, the koff came out at 0.0297 s⁻¹ and the kon came out at 424000 M⁻¹ s⁻¹.

B2: H4H6334P2 (antibody, V domains shown)
VH: EVQLVESGGGLVKPGGSLRLSCAVSGFTFSIDWMIWVRQAPGTGLEWVGRIKRKTDGGTTDYAAPVKGRFTISRDDSKNTLYLQMNSLKTEDTAIYYCATGGFERWGQGTLVTVSS
VL: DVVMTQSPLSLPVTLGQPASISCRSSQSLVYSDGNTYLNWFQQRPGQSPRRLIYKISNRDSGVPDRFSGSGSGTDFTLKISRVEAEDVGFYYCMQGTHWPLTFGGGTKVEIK
notes: Human IgG4 Fc (prefix H4H)
B2: the binding result in assay [1] is listed as “no binding”. Moreover, in assay [3], the Kd was 225 nM, the “T½” value came to 18 s, the koff came out at 0.0349 s⁻¹ and the kon stood at 155000 M⁻¹ s⁻¹.

B3: H4H6338P (antibody, V domains shown)
VH: EVQLVESGGGLVQPGGSLRLSCAASGFAFSSYAMTWVRQTPGKGLEWVSSISGSGGSTYYADSVKGRFTISRDNSKNTLYLQMNSLRAEDTAVYYCAKARTGTHAFDIWGQGTMVTVSS
VL: not shown
notes: Human IgG4 Fc (prefix H4H)
In the case of B3, the binding result in assay [1] was “no binding”. In the assay with mouse big-ET-1 [4], the “T½” value stood at 0.6 s, the koff was determined as 0.885 s⁻¹ and the kon came out at 190000 M⁻¹ s⁻¹. Further, in assay [3], the “T½” value was found to be 6 s, the koff was determined as 0.12 s⁻¹ and the kon stood at 454000 M⁻¹ s⁻¹.

B4: H4H6343P (antibody, V domains shown)
VH: B3 VH with V5L, A28T, T35S, T40A, S50A, G56V, S57G, A97P
VL: not shown
notes: Human IgG4 Fc (prefix H4H)
As for B4, in assay [1], the binding result was “no binding”. In the assay with mouse big-ET-1 [4], the “T½” value worked out at 18 s, the koff amounted to 0.0453 s⁻¹ and the kon is 1.8e+06 M⁻¹ s⁻¹. Besides, in assay [3], the “T½” value turned out to be 36 s, the koff was 0.018 s⁻¹ and the kon turned out to be 1.61e+06 M⁻¹ s⁻¹.

B5: H4H6345P (antibody, V domains shown)
VH: B3 VH with A28I, T40A, S50A, G56V, A88I, A97G
VL: DIQMTQSPSTLSASVGDRVTITCRASQSISRWLAWYQQKPGKAPKLLIYKASSLETGVPSRFSGSGSGTEFTLTISSLQPDDFGTYYCQQYNSYSSFGPGTKVDIK
notes: Human IgG4 Fc (prefix H4H)
B5: in assay [1], the binding result is “no binding”. Also, in the assay with mouse big-ET-1 [4], binding was put at a Kd of 65 nM, the “T½” value came out at 6 s, the koff was 0.0974 s⁻¹ and the kon was 1.5e+06 M⁻¹ s⁻¹. For the same molecule, in assay [3], binding was characterised by a dissociation constant (Kd) of 87.4 nM, the “T½” value came out at 12 s, the koff came to 0.058 s⁻¹ and the kon is 663000 M⁻¹ s⁻¹.

B6: H4H6330P (antibody, V domains shown)
VH: EVQLVESGGGLVQPGGSLRLSCAASGFTFSNYAMSWVRQAPGKGLEWVSAVSGSGVGTYYADSVKGRFTISRDNSKNTLYLQMKSLSAEDTALYYCTKTLGGTHAFDIWGQGTMVTVSS
VL: B5 VL with T56S, L73V, S76N, G84A, P99Q, V103L, D104E
notes: Human IgG4 Fc (prefix H4H)
Take B6: the binding result in assay [1] is listed as “no binding”. In the assay with mouse big-ET-1 [5], the “Blocking IC50(M), 20 nM mBig-ET-1 + 5 nM mECE1; 293/ETaR/NFAT-Luc luciferase” value worked out at 1.6e-09 M. Also, in assay [2], the “Blocking IC50(M), 10 nM hBig-ET-1 + 3 nM hECE1; 293/ETaR/NFAT-Luc luciferase” value came to 1.7e-09 M. Besides, in the assay with mouse big-ET-1 [4], the Kd came out at 50 nM, the “T½” value came out at 12 s, the koff was 0.072 s⁻¹ and the kon was 1.5e+06 M⁻¹ s⁻¹. Moreover, in assay [3], the Kd is 22.9 nM, the “T½” value came to 24 s, the koff is 0.0324 s⁻¹ and the kon was found to be 1.42e+06 M⁻¹ s⁻¹.

B7: H4H6323P (antibody, V domains shown)
VH: QITLKESGPPLVKPTQTLTLTCTFSGFSLNTNGMGVGWIRQPPGKALEWLTLIYWNDDKRYSPSLKTRLTITKDTSKNQVVLTMTNMDPVDTATYYCARFGSGTYWGQGTLVTVSS
VL: DIVMTQSPLSLPVTPGEPASISCRSSQSLLHSYGYNFLDWFLQKPGQSPQLLIYLGSHRASGVPDRFSGSGSGTDFTLKISRVEAEDVGVYYCMQALQTPLTFGGGTKVEIK
notes: Human IgG4 Fc (prefix H4H)
As to B7, the binding result in assay [1] was “no binding”. The “Blocking IC50(M), 20 nM mBig-ET-1 + 5 nM mECE1; 293/ETaR/NFAT-Luc luciferase” value with mouse big-ET-1 [5] was 4e-09 M. In assay [2], the “Blocking IC50(M), 10 nM hBig-ET-1 + 3 nM hECE1; 293/ETaR/NFAT-Luc luciferase” value is 7.6e-09 M. In the assay with mouse big-ET-1 [4], the equilibrium dissociation constant (Kd) stood at 32.9 nM, the “T½” value came to 36 s, the koff amounted to 0.0192 s⁻¹ and the kon came to 580000 M⁻¹ s⁻¹. Moreover, in assay [3], the Kd came to 10.1 nM, the “T½” value turned out to be 120 s, the koff was found to be 0.00569 s⁻¹ and the kon is 565000 M⁻¹ s⁻¹.

B8: H4H6316P (antibody, V domains shown)
VH: QVQLVESGGGVVQPGRSLRLSCEASGFTFSSYGMHWVRQAPGKGLEWVAVFWYDGSNKYYADSVKGRFTISRDNSKNTLYLQMNSLTAEDTAIYYCARAYDAFDIWGQGTMVTVSS
VL: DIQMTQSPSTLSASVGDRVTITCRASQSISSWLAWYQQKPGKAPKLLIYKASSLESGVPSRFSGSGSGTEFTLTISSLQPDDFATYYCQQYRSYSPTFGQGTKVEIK
notes: Human IgG4 Fc (prefix H4H)
Turning to B8, in assay [1], the binding result is listed as “no binding”. Moreover, the “Blocking IC50(M), 20 nM mBig-ET-1 + 5 nM mECE1; 293/ETaR/NFAT-Luc luciferase” value in the assay with mouse big-ET-1 [5] was more than 1e-07 M. Further, in assay [3], binding was characterised by a dissociation constant (Kd) of 14.8 nM, the “T½” value turned out to be 1620 s, the koff stood at 0.000428 s⁻¹ and the kon is 28800 M⁻¹ s⁻¹.

B9: H4H6317P (antibody, V domains shown)
VH: B8 VH with E23A, F51L, S56R, T87R, I93V, A99S
VL: DIQMTQSPSTLSASVGDRVTITCRASQSISSWLAWFQQGPGRAPKLLIYKASTLQSGVPSRFSGSGSGTEFTLTISSLQPDDFATYYCQQYRSYSPTFGQGTKVEIK
notes: Human IgG4 Fc (prefix H4H)
Take B9: the binding result in assay [1] was “no binding”. The “Blocking IC50(M), 20 nM mBig-ET-1 + 5 nM mECE1; 293/ETaR/NFAT-Luc luciferase” value with mouse big-ET-1 [5] was more than 1e-07 M. Moreover, in assay [3], binding was characterised by a dissociation constant (Kd) of 5.42 nM, the “T½” value came to 3480 s, the koff came to 0.000199 s⁻¹ and the kon amounted to 36700 M⁻¹ s⁻¹.

B10: H4H6311P (antibody, V domains shown)
VH: B8 VH with E23A, S31T, Y53F, L79I, T87R
VL: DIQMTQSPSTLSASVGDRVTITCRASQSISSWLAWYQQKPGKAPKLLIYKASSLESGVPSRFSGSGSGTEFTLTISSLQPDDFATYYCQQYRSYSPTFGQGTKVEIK
notes: Human IgG4 Fc (prefix H4H)
For B10, the binding result in assay [1] is reported as “no binding”. In addition, in assay [3], binding was put at a Kd of 15.2 nM, the “T½” value is 2400 s, the koff is 0.000292 s⁻¹ and the kon was found to be 19200 M⁻¹ s⁻¹.

B11: H4H6329P (antibody, V domains shown)
VH: QVQLVESGGGVVQPGRSLRLSCAASGFTFGSYGMHWVRQAPGKGLEWVAVIWYDGSDEYYTDSVKGRFTVSRDNSKYTLYLQMNSLRADDTAVYYCARDGYRTRGNYFDYWGQGTLVTVSS
VL: DVVMTQSPLSLPVALGQPASISCRSSQSLVYSDGNTYLNWFQQRPGQSPRRLIYKVSNRDSGVPDRFGGSGSGTDFTLKISRVEAEDVGLYYCMQGTHWPPTFGGGTKVEIK
notes: Human IgG4 Fc (prefix H4H)
Take B11: in assay [1], the binding result is on record as “no binding”. The “Blocking IC50(M), 20 nM mBig-ET-1 + 5 nM mECE1; 293/ETaR/NFAT-Luc luciferase” value in the assay with mouse big-ET-1 [5] is more than 1e-07 M. In assay [2], the “Blocking IC50(M), 10 nM hBig-ET-1 + 3 nM hECE1; 293/ETaR/NFAT-Luc luciferase” value is 3.3e-09 M. In the assay with mouse big-ET-1 [4], the Kd worked out at 19 nM, the “T½” value amounted to 3120 s, the koff stood at 0.000223 s⁻¹ and the kon came to 11600 M⁻¹ s⁻¹. For the same molecule, in assay [3], the Kd turned out to be 0.297 nM, the “T½” value was 3900 s, the koff is 0.000176 s⁻¹ and the kon was 595000 M⁻¹ s⁻¹.
